The values below come from PMC8141644, “Design of a Trispecific Checkpoint Inhibitor and Natural Killer Cell Engager Based on a 2 + 1 Common Light Chain Antibody Architecture” (Frontiers in Immunology, 2021).

Assay [1] deals with T1, EGFR-ECD (UniProt P00533).
T1 construct: epidermal growth factor receptor (EGFR), extracellular domain (EGFR-ECD); With anti-human-Fc (AHC) sensors it was probably the His-tagged one; also called epidermal growth factor receptor extracellular domain
In words: BLI; sterile filtered Expi293F cell culture supernatants of the light chain variants paired with the parental FEB4 heavy chain. The settings on record: one partner purified. Background: In BLI a coated tip is dipped into the sample, and binding shifts an interference pattern.

The next assay deals with T2, PD-L1-ECD (Homo sapiens (; durvalumab …, UniProt Q9NZQ7).
T2 construct: also called His-tagged PD-L1; source: bought: R&D systems (His-tagged PD-L1)
T2 sequence (Q9NZQ7 19-238): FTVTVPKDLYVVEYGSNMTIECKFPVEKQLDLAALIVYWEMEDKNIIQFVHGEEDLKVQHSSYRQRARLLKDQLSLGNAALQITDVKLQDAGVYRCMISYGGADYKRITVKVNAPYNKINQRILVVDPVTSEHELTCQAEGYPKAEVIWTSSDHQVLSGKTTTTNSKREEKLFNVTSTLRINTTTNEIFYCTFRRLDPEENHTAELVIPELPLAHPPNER
In words: BLI; affinity determination as previously described (54); purified antibodies (loaded onto AHC biosensors, as told for the anti-CD16a variants), antigen in solution; Octet RED96, 30 °C, 1000 rpm. The settings on record: both partners purified.

Assay [2] concerns the target T1, EGFR-ECD. The description is as above. The settings on record: both partners purified.

B1: FEB4 (antibody, V domains shown)
VH: AVTLDESGGGLQTPGGALSLVCKASGFTFSSHGMLWVRQAPGKGLEFVAGISTDGSSTSYGAPVKGRATISRDNGQSTVRLQLNNLRAEDTGTYYCAKDAYRCRNCAEDIDAWGHGTEVIVSS
VL: ALTQPSSVSANPGETVKITCSGGYSDDGSYYYYGWFQQKSPGSAPVTVIYDNTNRPSNIPSRFSGSTSGSTSTLTITGVRAEDEAVYYCGSIDTGYAGIFGAGTTLTVL
notes: IgG1 constant region (CH1, hinge, Fc); standard IgG1 format; also called parental FEB4 mAb; parental antibody; copies: 2 + 2
Regarding B1, the binding result with EGFR-ECD [1] is listed as “binds”.

B2: ICI2 (antibody, V domains shown)
VH: AVTLDESGGGLQTPGGALSLVCKASGFDFSSYDMAWVRQAPGKGLEWVAGIKSNGPWTNYGAAVKGRATISRDNGQSTVRLQLNNLRAEDTAIYYCAKPGAGYVGWDAAGTIDSWGHGTEVIVSS
VL: ALTQPSSVSANPGETVKITCSGGGYDGSYYYGWYQQKSPGSAPVTVIYDNTNRPSNIPSRFSGSLSGSTNTLTITGVQAEDEAVYFCGGYDRSGGIFGGGTTLTVL
notes: VH of ICI2 (chicken-derived); IgG1 constant region (CH1, hinge, Fc) with the LALA mutation; as the light chain of m10 (dFEB1-VL common light chain); IgG1 LALA chimeric antibody; source: Expi293F, purified (Protein A chromatography); copies: 2 + 2
On to B2, for which the equilibrium dissociation constant (Kd) with PD-L1-ECD was determined as 3 nM.

B3: dFEB4-1 (antibody, V domains shown)
VH: AVTLDESGGGLQTPGGALSLVCKASGFTFSSHGMLWVRQAPGKGLEFVAGISTDGSSTSYGAPVKGRATISRDNGQSTVRLQLNNLRAEDTGTYYCAKDAYRCRNCAEDIDAWGHGTEVIVSS
VL: ALTQPSSVSANPGETVKITCSGGGYDGSYYYGWYQQKSPGSAPVTVIYDNTNRPSNIPSRFSGSLSGSTNTLTITGVQAEDEAVYFCGGYDRSGGIFGGGTTLTVL
notes: as the heavy chain of m8 (parental FEB4 heavy chain); dFEB1-VL, chicken VL from the light chain shuffling; human lambda CL; IgG; also called parental FEB4 heavy chain with dFEB1-VL; source: Expi293F, co-transfected; sterile filtered culture supernatant, and purified (Protein A chromatography); copies: 2 + 2
For the molecule B3, in the assay with EGFR-ECD [2], the Kd came out at 6.4 nM and the “fold improvement in KD against the parental FEB4” value was 5 fold.

A word on the Kd: it is the constant that tells how readily two partners part at equilibrium.
